First the molecules themselves.
T1: human KLRB1 protein extracellular domain (ECD) (human, UniProt Q12918 67-225)
T1 construct: range 67-225; The ELISA and SPR text says only 'human KLRB1 ECD'; also called human KLRB1 ECD; CD161
T1 sequence (looked up): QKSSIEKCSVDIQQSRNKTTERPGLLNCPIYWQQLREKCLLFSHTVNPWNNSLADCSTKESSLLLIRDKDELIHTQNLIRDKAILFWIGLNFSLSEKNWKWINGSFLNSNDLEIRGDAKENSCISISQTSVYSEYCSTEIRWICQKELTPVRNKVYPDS

B1: 10A3D6C109Chum2.2 (antibody, V domains shown)
VH: QVQLVQSGAEVKKPGASVKVSCKASGYSFTGYTMNWVRQAPGQNLEWIGLINPNTGGTYYNQKFKDRVTLTVDTSISTAYMELSRLRSDDTAVYYCARLGDNYRGYFDCWGQGTTVTVSS
VL: DIQLTQSPSFLSASVGDRVTITCKASQDVGTAVVWYQQKPGKAPKLLIDWASIRHTGVPSRFSGSGSGTEFTLTISSLQPEDFADYFCQQYSTYLYTFGGGTKLEIK
notes: Humanized variant of 10A3D6 made by CDR grafting
B2: 10A3D6C109Chum3.4 (antibody, V domains shown)
VH: B1 VH with P41H
VL: B1 VL with K39T, S60D
notes: as for B1
B3: 10A3D6C109Chum4.1 (antibody, V domains shown)
VH: B1 VH with P41H, V68A
VL: B1 VL with D49Y, D85T, F87Y
notes: as for B1
B4: 10A3D6C109Chum3.1 (antibody, V domains shown)
VH: B1 VH with P41H
VL: B1 VL with D49Y, D85T, F87Y
notes: as for B1
B5: 10A3D6C109Chum1.1 (antibody, V domains shown)
VH: B1 VH with N44G, I48M, L70M, V72R
VL: B1 VL with D49Y, D85T, F87Y
notes: as for B1
B6: 10A3D6C109Chum1.4 (antibody, V domains shown)
VH: B1 VH with N44G, I48M, L70M, V72R
VL: B1 VL with K39T, S60D
notes: as for B1
B7: 10A3D6C109Chum4.2 (antibody, V domains shown)
VH: B1 VH with P41H, V68A
VL: B1 VL
notes: as for B1
B8: 10A3D6C109Chum3.3 (antibody, V domains shown)
VH: B1 VH with P41H
VL: B1 VL with K39T
notes: as for B1
B9: 10A3D6C109Chum4.4 (antibody, V domains shown)
VH: B1 VH with P41H, V68A
VL: B1 VL with K39T, S60D
notes: as for B1
B10: 10A3D6C109Chum4.3 (antibody, V domains shown)
VH: B1 VH with P41H, V68A
VL: B1 VL with K39T
notes: as for B1
B11: 10A3D6C109Chum1.3 (antibody, V domains shown)
VH: B1 VH with N44G, I48M, L70M, V72R
VL: B1 VL with K39T
notes: as for B1
B12: 10A3D6C109Chum1.2 (antibody, V domains shown)
VH: B1 VH with N44G, I48M, L70M, V72R
VL: B1 VL
notes: as for B1
B13: 10A3D6C109Chum2.1 (antibody, V domains shown)
VH: B1 VH
VL: B1 VL with D49Y, D85T, F87Y
notes: as for B1
B14: 10A3D6C109Chum2.3 (antibody, V domains shown)
VH: B1 VH
VL: B1 VL with K39T
notes: as for B1
B15: 10A3D6C109Chum2.4 (antibody, V domains shown)
VH: B1 VH
VL: B1 VL with K39T, S60D
notes: as for B1
B16: 10A3D6C109Chum3.2 (antibody, V domains shown)
VH: B1 VH with P41H
VL: B1 VL
notes: as for B1
B17: 10A3D6 (murine monoclonal antibody) (antibody, mouse IgG1)
heavy: EVQLQQSGPELVKPGASMKISCKASGYSFTGYTMNWVKQSHGKNLEWIGLINPNTGGTYYNQKFKDKATLTVDKSSSTAYMELLSLTSEDSAVYYCARLGDNYRGYFDCWGQGTTLTVSSAKTTPPSVYPLAPGSAAQTNSMVTLGCLVKGYFPEPVTVTWNSGSLSSGVHTFPAVLQSDLYTLSSSVTVPSSPRPSETVTCNVAHPASSTKVDKKIVPRDCGCKPCICTVPEVSSVFIFPPKPKDVLTITLTPKVTCVVVDISKDDPEVQFSWFVDDVEVHTAQTQPREEQFNSTFRSVSELPIMHQDWLNGKEFKCRVNSAAFPAPIEKTISKTKGRPKAPQVYTIPPPKEQMAKDKVSLTCMITDFFPEDITVEWQWNGQPAENYKNTQPIMNTNGSYFVYSKLNVQKSNWEAGNTFTCSVLHEGLHNHHTEKSLSHSPGK
light: DIVMTQSHKFMSTSVGDRVNITCKASQDVGTAVVWYQQTPGQSPKVLIDWASIRHTGVPDRFTGSGSGTDFTLTISSVQSEDLADYFCQQYSTYLYTFGGGTKLEIKRADAAPTVSIFPPSSEQLTSGGASVVCFLNNFYPKDINVKWKIDGSERQNGVLNSWTDQDSKDSTYSMSSTLTLTKDEYERHNSYTCEATHKTSTSPIVKSFNRNEC
notes: copies: 2 + 2
B18: 10A3D6C109S-chimeric (antibody, human IgG1, V domains shown)
VH: EVQLQQSGPELVKPGASMKISCKASGYSFTGYTMNWVKQSHGKNLEWIGLINPNTGGTYYNQKFKDKATLTVDKSSSTAYMELLSLTSEDSAVYYCARLGDNYRGYFDSWGQGTTLTVSS
VL: DIVMTQSHKFMSTSVGDRVNITCKASQDVGTAVVWYQQTPGQSPKVLIDWASIRHTGVPDRFTGSGSGTDFTLTISSVQSEDLADYFCQQYSTYLYTFGGGTKLEIK
notes: Chimeric mutated variant; the name hIgG1k indicates human IgG1 kappa constant regions; also called 10A3D6C109ShIgG1k
B19: 10A3D6C109F-chimeric (antibody, human IgG1, V domains shown)
VH: B18 VH with S109F
VL: B18 VL
notes: Chimeric mutated variant; the name hIgG1k indicates human IgG1 kappa constant regions; also called 10A3D6C109FhIgG1k
B20: 10A3D6C109V-chimeric (antibody, human IgG1, V domains shown)
VH: B18 VH with S109V
VL: B18 VL
notes: Chimeric mutated variant; the name hIgG1k indicates human IgG1 kappa constant regions; also called 10A3D6C109VhIgG1k

Where a chain is given by its changes, count along the chain named.

The values below come from US20250270328A1 (BRIGHAM AND WOMEN S HOSPITAL, published 2025).

In general, Kd refers to the equilibrium constant for the complex coming apart. Read a high Kd as a looser complex. In general, koff refers to a measure of how fast the partners let go of each other. Read a low koff as slow dissociation. One may read the kon as the rate constant with which the complex forms. Low values mean slower complex formation, high ones faster complex formation.

The target of the experiment is T1, human KLRB1 protein extracellular …. Put plainly: SPR, human KLRB1 ECD; format not stated. On the procedure: The chimeric antibody 10A3D6-hIgGlk (a mouse/human chimeric antibody with 10A3D6 variable regions and human IgG1-kappa constant regions), chimeric mutated variants (10A3D6C109S, 10A3D6C109F, and 10A3D6C109V), and humanized variants of 10A3D6 created by CDR grafting (Almagro et al. 2008) were assayed for binding against human KLRB1 extracellular domain (ECD) via surface plasma resonance (SPR).
On the technique in general: In SPR one partner is held on a chip, and binding of the other changes the refractive index at the surface.
In turn, B1 showed a Kd of 0.106 nM, an off-rate (koff) of 9.54e-05 s⁻¹ and a kon of 903000 M⁻¹ s⁻¹.

For B2, the Kd was found to be 0.0907 nM, the koff was determined as 9.2e-05 s⁻¹ and the kon worked out at 1.01e+06 M⁻¹ s⁻¹.

For B3, the equilibrium dissociation constant (Kd) amounted to 21.7 nM, the koff came out at 0.00253 s⁻¹ and the kon amounted to 117000 M⁻¹ s⁻¹.

B4 had a Kd of 15.8 nM, a koff of 0.00721 s⁻¹ and an association rate constant (kon) of 457000 M⁻¹ s⁻¹.

B5 showed a Kd of 9.42 nM, a koff of 0.00296 s⁻¹ and a kon of 314000 M⁻¹ s⁻¹.

Consider B6, for which the Kd amounted to 0.0717 nM, the koff came to 8.6e-05 s⁻¹ and the kon was determined as 1.2e+06 M⁻¹ s⁻¹.

B7 came in with a Kd of 0.121 nM, a koff of 0.000107 s⁻¹ and a kon of 880000 M⁻¹ s⁻¹.

In the case of B8, the Kd was found to be 0.109 nM, the koff stood at 9.89e-05 s⁻¹ and the on-rate constant (kon) worked out at 905000 M⁻¹ s⁻¹.

Take B9: the Kd came out at 0.103 nM, the koff amounted to 9.88e-05 s⁻¹ and the kon turned out to be 963000 M⁻¹ s⁻¹.

Molecule B10 displayed a Kd of 0.127 nM, an off-rate constant (koff) of 0.000109 s⁻¹ and a kon of 851000 M⁻¹ s⁻¹.

As for B11, the Kd worked out at 0.1 nM, the koff was determined as 0.0001 s⁻¹ and the kon was found to be 999000 M⁻¹ s⁻¹.

Molecule B12 registered a Kd of 0.0932 nM, a koff of 9.35e-05 s⁻¹ and a kon of 1e+06 M⁻¹ s⁻¹.

The molecule B13 registered a Kd of 12.9 nM, a koff of 0.00408 s⁻¹ and a kon of 315000 M⁻¹ s⁻¹.

For the molecule B14, the Kd was determined as 0.0985 nM, the koff worked out at 9.41e-05 s⁻¹ and the kon came to 955000 M⁻¹ s⁻¹.

For the molecule B15, binding was put at a Kd of 0.0976 nM, the koff was 9.68e-05 s⁻¹ and the kon stood at 992000 M⁻¹ s⁻¹.

B16 had a Kd of 0.135 nM, a koff of 0.000112 s⁻¹ and a kon of 832000 M⁻¹ s⁻¹.

The molecule B17 registered a Kd of 0.259 nM, a koff of 0.000123 s⁻¹ and an on-rate (kon) of 475000 M⁻¹ s⁻¹.

B18 gave a Kd of 0.0511 nM, an off-rate (koff) of 0.000303 s⁻¹ and a kon of 5.93e+06 M⁻¹ s⁻¹.

Regarding B19, the Kd is 0.0627 nM, the koff turned out to be 0.000336 s⁻¹ and the association rate constant (kon) was determined as 5.36e+06 M⁻¹ s⁻¹.

The molecule B20 came in with a Kd of 0.0436 nM, an off-rate constant (koff) of 0.000293 s⁻¹ and a kon of 6.72e+06 M⁻¹ s⁻¹.
